From patent US20240261333A1, “NOVEL TARGETS FOR ENHANCING ANTI-TUMOR IMMUNITY” (THE BROAD INSTITUTE, INC., priority 2021, published 2024)

How the values were obtained:
MMP14 (human) = MMP14 (human) (UniProt P50281); assay: co-IP with IgG control, lysate of C-FLAG B3GNT2 cells, mass spectrometry
JUP (human) = JUP (human) (UniProt P14923); assay: as above
SPARC (human) = SPARC (human) (UniProt P09486); assay: as above
PSMB5 (human) = PSMB5 (human) (UniProt P28074); assay: as above
RPL7A (human) = RPL7A (human) (UniProt P62424); assay: as above
PUF60 (human) = PUF60 (human) (UniProt Q9UHX1); assay: as above
Chain of PUF60 (human) (Q9UHX1 whole entry): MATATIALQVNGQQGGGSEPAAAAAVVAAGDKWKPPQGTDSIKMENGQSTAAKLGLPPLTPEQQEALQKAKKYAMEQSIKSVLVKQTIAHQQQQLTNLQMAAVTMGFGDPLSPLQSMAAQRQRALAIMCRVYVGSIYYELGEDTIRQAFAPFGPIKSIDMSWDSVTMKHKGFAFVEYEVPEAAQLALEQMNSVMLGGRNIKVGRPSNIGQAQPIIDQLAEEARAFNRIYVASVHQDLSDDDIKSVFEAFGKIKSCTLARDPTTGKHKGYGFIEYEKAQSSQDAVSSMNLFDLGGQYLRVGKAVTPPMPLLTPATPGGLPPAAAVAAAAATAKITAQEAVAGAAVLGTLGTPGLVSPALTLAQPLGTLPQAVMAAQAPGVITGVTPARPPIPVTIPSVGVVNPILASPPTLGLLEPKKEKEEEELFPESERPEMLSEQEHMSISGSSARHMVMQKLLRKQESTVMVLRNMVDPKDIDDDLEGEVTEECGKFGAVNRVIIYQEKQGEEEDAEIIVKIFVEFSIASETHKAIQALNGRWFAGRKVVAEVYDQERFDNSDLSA

UniProt P01837.1 = assay: as above
RPS24 (human) = RPS24 (human) (UniProt P62847); assay: as above
DDX5 (human) = DDX5 (human) (UniProt P17844); assay: co-IP, IgG control, lysate of cells with C-FLAG B3GNT2; mass spectrometry
Chain of DDX5 (human) (P17844 whole entry): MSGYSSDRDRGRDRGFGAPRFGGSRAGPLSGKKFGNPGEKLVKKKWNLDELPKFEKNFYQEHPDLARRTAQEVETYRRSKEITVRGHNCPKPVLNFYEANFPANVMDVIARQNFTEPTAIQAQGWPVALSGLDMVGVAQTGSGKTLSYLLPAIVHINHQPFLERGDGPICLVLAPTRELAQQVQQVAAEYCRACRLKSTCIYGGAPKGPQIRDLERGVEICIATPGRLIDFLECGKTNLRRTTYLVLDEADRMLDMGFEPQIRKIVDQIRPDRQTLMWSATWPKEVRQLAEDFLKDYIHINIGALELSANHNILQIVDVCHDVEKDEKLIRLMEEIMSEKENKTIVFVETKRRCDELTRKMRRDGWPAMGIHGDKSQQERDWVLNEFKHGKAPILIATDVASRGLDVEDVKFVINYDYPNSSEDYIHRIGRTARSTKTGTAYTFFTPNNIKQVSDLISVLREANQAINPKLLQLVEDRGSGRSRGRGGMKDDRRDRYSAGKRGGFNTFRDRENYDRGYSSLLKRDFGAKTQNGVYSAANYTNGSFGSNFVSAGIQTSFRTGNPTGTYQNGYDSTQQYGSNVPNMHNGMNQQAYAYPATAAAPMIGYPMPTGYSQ

PUM1 (human) = PUM1 (human) (UniProt Q14671); assay: as above
LSM12 (human) = LSM12 (human) (UniProt Q3MHD2); assay: as above
Chain of LSM12 (human) (Q3MHD2 2-195 limits assumed): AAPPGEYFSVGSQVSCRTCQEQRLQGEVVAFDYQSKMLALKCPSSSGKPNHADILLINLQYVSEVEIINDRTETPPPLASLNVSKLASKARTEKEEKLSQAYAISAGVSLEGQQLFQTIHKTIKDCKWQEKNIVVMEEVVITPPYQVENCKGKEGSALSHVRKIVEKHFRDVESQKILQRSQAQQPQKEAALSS

SAMM50 (human) = SAMM50 (human) (UniProt Q9Y512); assay: as above
Chain of SAMM50 (human) (Q9Y512 whole entry): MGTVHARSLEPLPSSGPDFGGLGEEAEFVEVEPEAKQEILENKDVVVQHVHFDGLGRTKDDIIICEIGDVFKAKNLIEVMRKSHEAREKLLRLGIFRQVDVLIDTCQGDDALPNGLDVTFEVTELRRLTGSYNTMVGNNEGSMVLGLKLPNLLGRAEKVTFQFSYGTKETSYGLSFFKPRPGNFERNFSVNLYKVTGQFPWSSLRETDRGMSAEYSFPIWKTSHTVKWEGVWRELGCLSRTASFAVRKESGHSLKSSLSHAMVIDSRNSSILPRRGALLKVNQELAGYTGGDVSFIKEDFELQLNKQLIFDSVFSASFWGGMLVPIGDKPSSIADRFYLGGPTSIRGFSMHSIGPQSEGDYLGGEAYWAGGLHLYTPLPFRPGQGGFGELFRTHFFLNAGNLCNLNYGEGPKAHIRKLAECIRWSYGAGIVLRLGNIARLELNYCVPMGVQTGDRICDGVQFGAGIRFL

RPL10 (human) = RPL10 (human) (UniProt P27635); assay: as above
PARP1 (human) = PARP1 (human) (UniProt P09874); assay: as above
RBM39 (human) = RBM39 (human) (UniProt Q14498); assay: as above
Chain of RBM39 (human) (Q14498 other isoform, or with tags, fused parts or gaps limits assumed): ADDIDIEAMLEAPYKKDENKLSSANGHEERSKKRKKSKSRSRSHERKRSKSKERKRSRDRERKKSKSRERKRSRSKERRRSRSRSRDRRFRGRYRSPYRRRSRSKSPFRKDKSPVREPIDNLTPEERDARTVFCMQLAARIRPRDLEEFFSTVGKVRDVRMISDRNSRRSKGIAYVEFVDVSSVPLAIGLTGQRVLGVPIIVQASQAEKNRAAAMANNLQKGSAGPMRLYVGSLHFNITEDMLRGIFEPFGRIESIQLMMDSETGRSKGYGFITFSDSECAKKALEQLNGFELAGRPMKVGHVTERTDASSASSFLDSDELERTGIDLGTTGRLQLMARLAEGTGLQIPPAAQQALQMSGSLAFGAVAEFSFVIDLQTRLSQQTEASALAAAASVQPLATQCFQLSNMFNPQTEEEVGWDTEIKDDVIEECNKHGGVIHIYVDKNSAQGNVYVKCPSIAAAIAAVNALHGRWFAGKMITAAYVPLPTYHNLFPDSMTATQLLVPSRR

HNRNPK (human) = HNRNPK (human) (UniProt P61978); assay: as above
C1orf68 (human) = C1orf68 (human) (UniProt Q5T750); assay: as above
HSP90AB1 (human) = HSP90AB1 (human) (UniProt P08238); assay: anti-FLAG co-IP from lysate of N-FLAG B3GNT2 cells, mass spectrometry
ZRANB2 (human) = ZRANB2 (human) (UniProt O95218); assay: as above
Chain of ZRANB2 (human) (O95218 other isoform, or with tags, fused parts or gaps limits assumed): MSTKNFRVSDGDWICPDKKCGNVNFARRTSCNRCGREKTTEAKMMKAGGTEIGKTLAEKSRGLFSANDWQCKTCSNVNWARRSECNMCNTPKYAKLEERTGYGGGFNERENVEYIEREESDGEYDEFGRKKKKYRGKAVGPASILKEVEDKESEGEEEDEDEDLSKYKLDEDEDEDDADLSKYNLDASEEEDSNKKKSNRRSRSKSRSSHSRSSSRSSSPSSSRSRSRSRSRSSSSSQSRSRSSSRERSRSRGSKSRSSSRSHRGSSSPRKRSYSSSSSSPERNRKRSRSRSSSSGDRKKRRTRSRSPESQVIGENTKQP

LARP4 (human) = LARP4 (human) (UniProt Q71RC2); assay: as above
STAU1 (human) = STAU1 (human) (UniProt O95793); assay: as above
Chain of STAU1 (human) (O95793 other isoform, or with tags, fused parts or gaps limits assumed): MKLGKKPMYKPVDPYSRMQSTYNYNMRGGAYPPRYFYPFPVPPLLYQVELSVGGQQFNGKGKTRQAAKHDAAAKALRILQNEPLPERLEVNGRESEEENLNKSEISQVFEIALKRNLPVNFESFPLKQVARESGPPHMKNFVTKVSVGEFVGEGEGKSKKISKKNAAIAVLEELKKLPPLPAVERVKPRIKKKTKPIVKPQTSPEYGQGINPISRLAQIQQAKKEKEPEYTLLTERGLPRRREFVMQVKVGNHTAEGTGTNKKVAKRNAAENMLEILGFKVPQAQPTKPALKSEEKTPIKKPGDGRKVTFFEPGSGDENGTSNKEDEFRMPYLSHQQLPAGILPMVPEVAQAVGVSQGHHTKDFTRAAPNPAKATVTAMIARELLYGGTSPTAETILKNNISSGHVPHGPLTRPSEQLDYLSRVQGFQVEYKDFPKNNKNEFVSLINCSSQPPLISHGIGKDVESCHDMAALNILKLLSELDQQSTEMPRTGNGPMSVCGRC

KPNB1 (human) = KPNB1 (human) (UniProt Q14974); assay: as above
RPL15 (human) = RPL15 (human) (UniProt P61313); assay: as above
PGAM5 (human) = PGAM5 (human) (UniProt Q96HS1); assay: as above
ERP29 (human) = ERP29 (human) (UniProt P30040); assay: as above
PSMB4 (human) = PSMB4 (human) (UniProt P28070); assay: as above
PXN (human) = PXN (human) (UniProt P49023); assay: as above
AIFM1 (human) = AIFM1 (human) (UniProt O95831); assay: as above
Chain of AIFM1 (human) (O95831 55-613 limits assumed): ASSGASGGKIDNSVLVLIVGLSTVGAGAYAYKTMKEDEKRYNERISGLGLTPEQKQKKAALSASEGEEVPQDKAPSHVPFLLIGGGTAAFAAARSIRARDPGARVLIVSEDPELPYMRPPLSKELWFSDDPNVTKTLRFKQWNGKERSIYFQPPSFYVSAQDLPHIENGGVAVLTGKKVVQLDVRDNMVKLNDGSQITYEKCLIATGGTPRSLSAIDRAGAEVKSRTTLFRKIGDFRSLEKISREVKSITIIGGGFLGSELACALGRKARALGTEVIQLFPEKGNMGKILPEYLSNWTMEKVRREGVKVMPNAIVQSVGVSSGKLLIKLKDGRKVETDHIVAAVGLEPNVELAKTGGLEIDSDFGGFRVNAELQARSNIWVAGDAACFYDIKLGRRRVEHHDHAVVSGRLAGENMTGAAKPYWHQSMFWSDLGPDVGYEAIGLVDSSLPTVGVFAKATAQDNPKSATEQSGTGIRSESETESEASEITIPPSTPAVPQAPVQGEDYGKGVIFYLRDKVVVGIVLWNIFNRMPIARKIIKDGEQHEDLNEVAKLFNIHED

LDHA (human) = LDHA (human) (UniProt P00338); assay: as above
EEF2 (human) = EEF2 (human) (UniProt P13639); assay: as above
RRBP1 (human) = RRBP1 (human) (UniProt Q9P2E9); assay: as above
ACSL3 (human) = ACSL3 (human) (UniProt O95573); assay: as above
Chain of ACSL3 (human) (O95573 whole entry): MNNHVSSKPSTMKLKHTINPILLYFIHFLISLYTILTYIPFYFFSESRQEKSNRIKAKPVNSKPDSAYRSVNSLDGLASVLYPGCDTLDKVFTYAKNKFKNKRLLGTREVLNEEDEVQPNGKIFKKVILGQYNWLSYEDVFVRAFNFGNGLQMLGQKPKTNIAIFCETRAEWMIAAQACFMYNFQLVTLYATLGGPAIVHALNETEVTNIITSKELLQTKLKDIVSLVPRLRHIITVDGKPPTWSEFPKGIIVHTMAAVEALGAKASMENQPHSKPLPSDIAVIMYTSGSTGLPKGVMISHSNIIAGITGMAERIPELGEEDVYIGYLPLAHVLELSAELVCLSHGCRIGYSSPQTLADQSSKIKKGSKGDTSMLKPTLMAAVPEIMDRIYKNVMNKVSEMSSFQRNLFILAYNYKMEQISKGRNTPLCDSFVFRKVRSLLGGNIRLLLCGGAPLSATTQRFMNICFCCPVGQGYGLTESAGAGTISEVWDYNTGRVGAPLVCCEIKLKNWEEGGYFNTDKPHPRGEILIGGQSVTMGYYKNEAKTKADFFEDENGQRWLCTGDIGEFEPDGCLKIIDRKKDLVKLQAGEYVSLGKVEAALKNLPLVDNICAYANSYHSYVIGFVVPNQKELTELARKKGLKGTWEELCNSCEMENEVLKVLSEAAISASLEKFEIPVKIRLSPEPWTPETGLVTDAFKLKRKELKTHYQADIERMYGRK

PSMC2 (human) = PSMC2 (human) (UniProt P35998); assay: as above
PSMA5 (human) = PSMA5 (human) (UniProt P28066); assay: as above
Chain of PSMA5 (human) (P28066 whole entry): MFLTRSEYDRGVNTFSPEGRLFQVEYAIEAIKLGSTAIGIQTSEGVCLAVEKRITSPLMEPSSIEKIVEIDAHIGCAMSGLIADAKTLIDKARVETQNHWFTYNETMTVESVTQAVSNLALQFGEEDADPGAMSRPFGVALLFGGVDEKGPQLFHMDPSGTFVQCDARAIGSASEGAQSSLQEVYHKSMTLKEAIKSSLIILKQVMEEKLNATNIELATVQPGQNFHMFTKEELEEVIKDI

RPS6 (human) = RPS6 (human) (UniProt P62753); assay: as above
TUBA1C (human) = TUBA1C (human) (UniProt Q9BQE3); assay: as above
FBXO6 (human) = FBXO6 (human) (UniProt Q9NRD1); assay: as above
PSMB6 (human) = PSMB6 (human) (UniProt P28072); assay: as above
Chain of PSMB6 (human) (P28072 35-239 limits assumed): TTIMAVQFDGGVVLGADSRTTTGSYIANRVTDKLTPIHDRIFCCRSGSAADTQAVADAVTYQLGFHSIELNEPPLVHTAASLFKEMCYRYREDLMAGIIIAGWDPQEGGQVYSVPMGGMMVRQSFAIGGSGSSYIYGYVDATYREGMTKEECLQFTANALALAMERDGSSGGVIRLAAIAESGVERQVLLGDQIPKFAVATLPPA

Substance: IgG control (Millipore Sigma 12-371) (antibody)
- co-IP/MS count, C-term IgG (MMP14 (human)): 0
- co-IP/MS count, C-term IgG (JUP (human)): 36
- co-IP/MS count, C-term IgG (SPARC (human)): 0
- co-IP/MS count, C-term IgG (PSMB5 (human)): 0
- co-IP/MS count, C-term IgG (RPL7A (human)): 5
- co-IP/MS count, C-term IgG (PUF60 (human)): 5
- co-IP/MS count, C-term IgG (UniProt P01837.1): 108
- co-IP/MS count, C-term IgG (RPS24 (human)): 2
- co-IP mass spectrometry count (DDX5 (human)): 16
- co-IP mass spectrometry count (PUM1 (human)): 0
- co-IP mass spectrometry count (LSM12 (human)): 0
- co-IP mass spectrometry count (SAMM50 (human)): 0
- co-IP mass spectrometry count (RPL10 (human)): 3
- co-IP mass spectrometry count (PARP1 (human)): 0
- co-IP mass spectrometry count (RBM39 (human)): 3
- co-IP mass spectrometry count (HNRNPK (human)): 10
- co-IP mass spectrometry count (C1orf68 (human)): 4

Substance: N-terminal FLAG tagged B3GNT2 (from UniProt Q9NY97 1-397) (enzyme)
- co-IP mass spectrometry count (HSP90AB1 (human)): 10
- co-IP mass spectrometry count (ZRANB2 (human)): 5
- co-IP mass spectrometry count (LARP4 (human)): 0
- co-IP mass spectrometry count (STAU1 (human)): 2
- co-IP mass spectrometry count (KPNB1 (human)): 3
- co-IP mass spectrometry count (RPL15 (human)): 6
- co-IP mass spectrometry count (PGAM5 (human)): 4
- co-IP mass spectrometry count (ERP29 (human)): 2
- co-IP mass spectrometry count (PSMB4 (human)): 2
- co-IP mass spectrometry count (PXN (human)): 2
- co-IP mass spectrometry count (AIFM1 (human)): 5
- co-IP mass spectrometry count (LDHA (human)): 5
- co-IP mass spectrometry count (EEF2 (human)): 3
- co-IP mass spectrometry count (RRBP1 (human)): 2
- co-IP mass spectrometry count (ACSL3 (human)): 5
- co-IP mass spectrometry count (PSMC2 (human)): 2
- co-IP mass spectrometry count (PSMA5 (human)): 2
- co-IP mass spectrometry count (RPS6 (human)): 11
- co-IP mass spectrometry count (TUBA1C (human)): 76
- co-IP mass spectrometry count (FBXO6 (human)): 4
- co-IP mass spectrometry count (PSMB6 (human)): 5
